Assay results as given in patent US20230087600A1.

Legend:
[1] = target: human IL-10 receptor (IL-10R) on T cells and B cells of human whole blood (human) (UniProt Q13651); assay: cell-based or functional assay
[2] = target: T1, mouse IL-10 receptor (IL-10R) on T cells and B cells of C57BL/6 mouse splenocytes (mouse) (UniProt Q61727); assay: cell-based or functional assay
T1 sequence (looked up) 1: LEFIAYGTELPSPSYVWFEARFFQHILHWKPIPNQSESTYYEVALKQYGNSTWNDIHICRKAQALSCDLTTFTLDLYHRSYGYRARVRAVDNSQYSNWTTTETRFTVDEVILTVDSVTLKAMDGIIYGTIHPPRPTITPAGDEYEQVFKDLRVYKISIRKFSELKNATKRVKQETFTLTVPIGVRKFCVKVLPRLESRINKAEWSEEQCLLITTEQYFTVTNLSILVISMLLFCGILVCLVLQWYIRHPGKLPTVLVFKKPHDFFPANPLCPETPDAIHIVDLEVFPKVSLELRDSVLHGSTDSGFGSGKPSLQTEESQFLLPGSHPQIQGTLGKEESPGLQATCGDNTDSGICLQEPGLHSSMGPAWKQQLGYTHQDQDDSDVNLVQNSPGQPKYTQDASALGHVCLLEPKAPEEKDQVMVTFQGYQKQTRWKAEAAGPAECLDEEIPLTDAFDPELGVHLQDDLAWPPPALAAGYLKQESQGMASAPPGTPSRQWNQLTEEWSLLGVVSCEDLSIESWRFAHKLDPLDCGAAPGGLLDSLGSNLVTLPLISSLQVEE
T1 sequence (looked up) 2: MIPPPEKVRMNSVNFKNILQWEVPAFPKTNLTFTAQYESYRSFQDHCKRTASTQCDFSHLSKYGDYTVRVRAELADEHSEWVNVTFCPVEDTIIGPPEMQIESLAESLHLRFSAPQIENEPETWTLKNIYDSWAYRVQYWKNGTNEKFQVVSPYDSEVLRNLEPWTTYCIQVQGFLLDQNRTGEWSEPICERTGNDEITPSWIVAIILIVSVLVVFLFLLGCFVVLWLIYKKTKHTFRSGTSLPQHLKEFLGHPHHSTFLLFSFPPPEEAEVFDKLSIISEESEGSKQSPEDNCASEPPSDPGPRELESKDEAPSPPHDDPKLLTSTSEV

Sequence of human IL-10 receptor (IL-10R) on T cells and B cells of human whole blood (human) (Q13651 22-578, chain 1 of 2): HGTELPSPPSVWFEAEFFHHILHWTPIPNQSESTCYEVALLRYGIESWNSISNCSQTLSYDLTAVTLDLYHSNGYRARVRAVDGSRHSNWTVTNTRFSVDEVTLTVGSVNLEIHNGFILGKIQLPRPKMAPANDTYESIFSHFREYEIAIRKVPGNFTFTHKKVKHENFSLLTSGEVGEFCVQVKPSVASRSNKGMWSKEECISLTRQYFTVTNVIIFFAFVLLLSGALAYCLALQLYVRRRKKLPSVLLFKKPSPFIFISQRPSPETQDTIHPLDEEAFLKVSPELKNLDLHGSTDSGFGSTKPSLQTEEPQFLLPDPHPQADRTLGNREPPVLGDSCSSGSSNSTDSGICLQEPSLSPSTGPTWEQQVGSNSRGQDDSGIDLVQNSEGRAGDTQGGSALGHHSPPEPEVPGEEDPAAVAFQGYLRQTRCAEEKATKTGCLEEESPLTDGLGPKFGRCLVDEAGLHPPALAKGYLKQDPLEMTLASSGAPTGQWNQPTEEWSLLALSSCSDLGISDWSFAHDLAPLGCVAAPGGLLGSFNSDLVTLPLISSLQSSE
Sequence of human IL-10 receptor (IL-10R) on T cells and B cells of human whole blood (human) (Q08334 20-325, chain 2 of 2, further chain): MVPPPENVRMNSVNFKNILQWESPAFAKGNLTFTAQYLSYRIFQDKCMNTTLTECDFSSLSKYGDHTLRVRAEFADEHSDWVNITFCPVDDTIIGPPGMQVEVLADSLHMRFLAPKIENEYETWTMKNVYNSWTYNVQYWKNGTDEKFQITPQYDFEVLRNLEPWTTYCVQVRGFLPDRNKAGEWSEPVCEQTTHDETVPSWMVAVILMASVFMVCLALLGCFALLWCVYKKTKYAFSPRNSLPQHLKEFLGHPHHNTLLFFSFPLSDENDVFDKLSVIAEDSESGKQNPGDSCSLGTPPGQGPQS

With “5KPEG-hIL-10 (human IL-10 conjugated to 5 KD PEG) (from UniProt P22301 19-178) (ligand)” the STAT3 phosphorylation (pY705), flow cytometry, CD3+ T cells in human whole blood, EC50 [1] was 167 pM and the STAT3 phosphorylation (pY705), flow cytometry, CD19+ B cells in human whole blood, EC50 [1] was 347 pM.
“mIgG1-D265A-Fc-(G4S)4-mIL-10 (Fc fusion)” was tested, and the STAT3 phosphorylation (pY705), flow cytometry, B cells of C57BL/6 mouse splenocytes (CD19 + B cells), EC50 [2] was 125 pM and the STAT3 phosphorylation (pY705), flow cytometry, CD3+ T cells of C57BL/6 mouse splenocytes, EC50 [2] was 441 pM.
